# According to patent US20200361992A1 (PROTAGONIST THERAPEUTICS, published 2020):
# Starred links: 1 amine or outer side, 2 acyl side, 3 side chain; linkers in the order of their positions; H or OH if unused. Positions of bridges follow the written chain, without caps; N, C: chain ends. Non-standard residues stand in square brackets, D forms with d. Groups on a side chain read outwards from the residue. Primed or numbered codes have the meaning given here. *: point of attachment. PEG4′ = bifunctional PEG linker with 4 polyethylene glycol units; PEG12 = NCCOCCOCCOCCOCCOCCOCCOCCOCCOCCOCCOCCOCCC(=O)O; Phe(4-tBu) = CC(C)(C)c1ccc(C[C@H](N)C(=O)O)cc1; Dip = N[C@H](C(=O)O)C(c1ccccc1)c1ccccc1; γGlu = O=C(O)[C@H](CCC(=O)[*:2])N[*:1]; Palmitoyl = CCCCCCCCCCCCCCCC(=O)*; β3hF = N[C@H](CC(=O)O)Cc1ccccc1; Isovaleryl = CC(C)CC(=O)*; hSer = N[C@@H](CCO)C(=O)O; Nle = CCCC[C@H](N)C(=O)O; PEG1′ = not defined here; PEG2′ = not defined here; PEG8′ = not defined here; dDap = NC[C@@H](N)C(=O)O; Dap = NC[C@H](N)C(=O)O; Npc = nipecotic acid; Ahx = NCCCCCC(=O)O
# T1: human ferroportin (SLC40A1) fused with GFP, stably expressed in HEK293 cells (human, UniProt Q9NP59 1-571)
# T1 sequence (looked up): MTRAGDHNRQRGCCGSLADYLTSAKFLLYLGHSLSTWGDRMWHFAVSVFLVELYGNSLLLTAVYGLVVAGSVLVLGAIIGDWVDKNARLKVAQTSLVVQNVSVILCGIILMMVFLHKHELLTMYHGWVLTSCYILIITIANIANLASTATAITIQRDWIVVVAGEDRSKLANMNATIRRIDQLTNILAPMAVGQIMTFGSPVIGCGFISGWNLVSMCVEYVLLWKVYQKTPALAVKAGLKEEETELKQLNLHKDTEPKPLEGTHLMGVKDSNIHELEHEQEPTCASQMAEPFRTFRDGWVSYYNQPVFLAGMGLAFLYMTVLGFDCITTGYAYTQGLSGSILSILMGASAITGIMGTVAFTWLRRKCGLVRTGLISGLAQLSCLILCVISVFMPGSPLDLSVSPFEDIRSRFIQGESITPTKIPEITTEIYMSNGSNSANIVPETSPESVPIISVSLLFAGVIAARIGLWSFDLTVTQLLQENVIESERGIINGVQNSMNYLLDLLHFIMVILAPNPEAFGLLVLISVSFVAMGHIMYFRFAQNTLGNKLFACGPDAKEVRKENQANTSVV
# B1: Compd ID 151 (peptide)
# peptide: DTHXPCIKXKXX
# modifications: Isovaleric acid-DTH-[Dpa]-PCI-[(D)Lys]-[b-hPhe]-[Lys(Ahx-Palm)]-[Dap]-[N-Me-Cys]-NH2
# B2: Compd ID 166 (peptide)
# peptide: DTHXPCIKXKKC
# modifications: Isovaleric acid-DTH-[Dpa]-PCI-[(D)Lys-Peg11*]-[b-hPhe]-[Lys(Ahx-Palm)]-[(D)Lys-Peg11*]-C-NH2 (*PEG11-OMe)
# B3: Compd ID 158 (peptide)
# peptide: DTHXPCIKXKKC
# modifications: Isovaleric acid-DTH-[Dpa]-PCI-[(D)Lys]-[b-hPhe]-[Lys(IsoGlu-Palm)]-[(D)Lys]-C-NH2
# B4: Compd ID 157 (peptide)
# peptide: DTHXPCIKXKKC
# modifications: Isovaleric acid-DTH-[Dpa]-PCI-[(D)Lys]-[b-hPhe]-[Lys-Peg11*]-[(D)Lys]-C-NH2 (*PEG11-OMe)
# B5: Compd ID 153 (peptide)
# peptide: DTHXPCIKXKKC
# modifications: Isovaleric acid-DTH-[Dpa]-PCI-[(D)Lys-Peg11*]-[b-hPhe]-[Lys(Peg11-Palm)]-[(D)Lys-Peg11*]-C-NH2 (*PEG11-OMe)
# B6: Compd ID 156 (peptide)
# peptide: DTHXPCIKXKKC
# modifications: Isovaleric acid-DTH-[Dpa]-PCI-[(D)Lys]-[b-hPhe]-[Lys(Peg11-Lauryl)]-[(D)Lys]-C-NH2
# B7: Compd ID 159 (peptide)
# peptide: DTHXPCIKXKKC
# modifications: Isovaleric acid-DTH-[Dpa]-PCI-[(D)Lys-Ac]-[b-hPhe]-[Lys(Peg11-Palm)]-[(D)Lys-Ac]-C-NH2
# B8: Compd ID 155 (peptide)
# peptide: DTHXPCIKXKKC
# modifications: Isovaleric acid-DTH-[Dpa]-PCI-[(D)Lys]-[b-hPhe]-[Lys(Peg11-Octane)]-[(D)Lys]-C-NH2
# Molecular target: T1, human ferroportin (SLC40A1) fused with …
# Test: cell-based or functional assay
row,FPN IC50 [nM],Binder
1,2,Isovaleryl-DTHFPCI[hSer]FK([PEG12-Palmitoyl])C-NH2 (disulfide 6-11 (inferred)) [Compd ID 12]
2,40,Isovaleryl-DTHFPCI[dK]FK([PEG2′-Palmitoyl])C-NH2 (disulfide 6-11 (inferred)) [Compd ID 23]
3,17,Isovaleryl-DTHFPCI[dK]FK([PEG1′-Palmitoyl])C-NH2 (disulfide 6-11 (inferred)) [Compd ID 24]
4,11,Isovaleryl-DTHFPCI[dK]FK([PEG12-Palmitoyl])PRSKC-NH2 (disulfide 6-15 (inferred)) [Compd ID 73]
5,16,DTHFPCIKFKPRSKGC (Isovaleric acid-DTHFPCIKF-Lys[PEG11-Palm]-PRSKGC-NH2) [Compd ID 3]
6,28.5,B1
7,24,Isovaleryl-DTH[Dip]PCII[β3hF]K([PEG12-Palmitoyl])[dK]C-NH2 (disulfide 6-12 (inferred)) [Compd ID 147]
8,5,Isovaleryl-DTHFPCI[dK]FK([PEG12-Palmitoyl])PC-NH2 (disulfide 6-12 (inferred)) [Compd ID 70]
9,4,DTHFPCIXFKC (Isovaleric acid-DTHFPCI-[Orn]-[Phe]-Lys[PEG11-Palm]-C-NH2) [Compd ID 11]
10,11,Isovaleryl-DTHFPCI[dK]FK([Ahx-Palmitoyl])C-NH2 (disulfide 6-11 (inferred)) [Compd ID 25]
11,8,Isovaleryl-DTHFPCI[dK]FK([PEG12-Palmitoyl])PRC-NH2 (disulfide 6-13 (inferred)) [Compd ID 71]
12,22,Isovaleryl-DTH[Dip][Npc]CI[dK][Phe(4-tBu)]K([PEG12-Palmitoyl])C[dK]-NH2 (disulfide 6-11 (inferred)) [Compd ID 150]
13,6,B2
14,6,B3
15,404,DTHXPCIKXKKC (Isovaleric acid-DTH-[Dpa]-PCI-[(D)Lys]-[b-hPhe]-[Lys-Peg11]-[(D)Lys]-C-NH2) [Compd ID 154]
16,7,Isovaleryl-DTH[Dip]PCI[dK][β3hF][Dap]([dDap-Palmitoyl])C-NH2 (disulfide 6-11 (inferred)) [Compd ID 163]
17,4,DTHXPCIKXKC (Isovaleric acid-DTH-[Dpa]-PCI-[(D)Lys]-[b-hPhe]-[Lys(Dap-Palm)]-C-NH2) [Compd ID 160]
18,347,B4
19,6,DTHXPCIKXKKC (Isovaleric acid-DTH-[Dpa]-PCI-[(D)Lys]-[b-hPhe]-[Lys(Ahx-Palm)]-[(D)Lys]-C-NH2) [Compd ID 165]
20,54,DTHXPCIKFKKC (Isovaleric_Acid-D-T-H-bhPhe-(D)Pro-C-I-(D)Lys-F-[Lys_Peg11_Palm]-(D)Lys-C-NH2) [Compd ID 168]
21,12,Isovaleryl-DTHFPCI[dK]FK([PEG12-Palmitoyl])PRSC-NH2 (disulfide 6-14 (inferred)) [Compd ID 72]
22,13,DTHFPCIKFKPC (Isovaleric acid-DTHFPC(SH)I-[Lys]-[Phe]-Lys[PEG11-Palm]-Pro-C(SH)-NH2) [Compd ID 67]
23,2,Isovaleryl-DTHFPCI[Nle]FK([PEG12-Palmitoyl])C-NH2 (disulfide 6-11 (inferred)) [Compd ID 15]
24,19,B5

row,FPN IC50 [nM],Binder
1,31,Isovaleryl-DTHFPCI[dK]FK(Palmitoyl)C-NH2 (disulfide 6-11 (inferred)) [Compd ID 30]
2,6,Isovaleryl-DTH[Dip]PCI[dK][β3hF][Dap]([dDap-Palmitoyl])C-NH2 (disulfide 6-11 (inferred)) [Compd ID 164]
3,125,B6
4,4,Isovaleryl-DTHFPCIQFK([PEG12-Palmitoyl])C-NH2 (disulfide 6-11 (inferred)) [Compd ID 13]
5,9,DTHFPCIKFKC (Isovaleric acid-DTHFPC(SH)I-[Lys]-[Phe]-Lys[PEG11-Palm]-C(SH)-NH2) [Compd ID 69]
6,23,Isovaleryl-DTHFPCI[dK]FK([γGlu-PEG2′-Palmitoyl])C-NH2 (disulfide 6-11 (inferred)) [Compd ID 28]
7,35,Isovaleryl-DTHFPCI[dK]FK([γGlu-Palmitoyl])C-NH2 (disulfide 6-11 (inferred)) [Compd ID 27]
8,81,DTHXPCIKFKKC (Isovaleric Acid-D-T-H-[Dpa]-(D)Pro-C-I-(D)Lys-F-[Lys_Peg11_Palm]-(D)Lys-C-NH2) [Compd ID 167]
9,12,Isovaleryl-DTH[Dip]PCI[β3hF]K([PEG12-Palmitoyl])[dK]C-NH2 (disulfide 6-11 (inferred)) [Compd ID 148]
10,4,B7
11,11,Isovaleryl-DTH[Dip]PCI[dA][β3hF]K([PEG12-Palmitoyl])[dK]C-NH2 (disulfide 6-12 (inferred)) [Compd ID 146]
12,8,Isovaleryl-DTH[Dip]PCI[dK][β3hF][Dap]([Dap-Palmitoyl])C-NH2 (disulfide 6-11 (inferred)) [Compd ID 162]
13,3,Isovaleryl-DTHFPCIK(Ac)FK([PEG12-Palmitoyl])C-NH2 (disulfide 6-11 (inferred)) [Compd ID 14]
14,30,DTHFPCIKFKPRSKGCK (Isovaleric acid-DTHFPCIKF-Lys[PEG11-Palm]-PRSKGCK-NH2) [Ref. Compd 1]
15,17,Isovaleryl-DTHFPCI[dK]FK([PEG4′-Palmitoyl])C-NH2 (disulfide 6-11 (inferred)) [Compd ID 22]
16,146,DTHXPCIKXKKC (Isovaleric acid-DTH-[Dpa]-PCI-[(D)Lys]-[b-hPhe]-[Lys(Ac)]-[(D)Lys]-C-NH2) [Compd ID 152]
17,10,DTHXPCIKXKC (Isovaleric acid-DTH-[Dpa]-PCI-[(D)Lys]-[b-hPhe]-[Lys(dDap-Palm)]-C-NH2) [Compd ID 161]
18,4,Isovaleryl-DTHFPCIKWK([PEG12-Palmitoyl])C-NH2 (disulfide 6-11 (inferred)) [Compd ID 20]
19,30,Isovaleryl-DTHFPCI[dK]FK([PEG2′-Ahx-Palmitoyl])C-NH2 (disulfide 6-11 (inferred)) [Compd ID 29]
20,13,Isovaleryl-DTHFPCI[dK]FK([PEG2′-γGlu-Palmitoyl])C-NH2 (disulfide 6-11 (inferred)) [Compd ID 26]
21,12,Isovaleryl-DTHFPCI[dK]FK([PEG12-Palmitoyl])C-NH2 (cysteine pairing not given here) [Compd ID 68]
22,30,Isovaleryl-DTHFPCI[dK]FK([PEG8′-Palmitoyl])C-NH2 (disulfide 6-11 (inferred)) [Compd ID 21]
23,279,B8
24,17,Isovaleryl-DTH[Dip][Npc]CI[dK][Phe(4-tBu)]K([PEG12-Palmitoyl])[dK]C-NH2 (disulfide 6-12 (inferred)) [Compd ID 149]
